T1: mouse SIRPA variant hmSIRPA_Δ0 (mouse (with human residues), UniProt P97797 35-513)
T1 construct: FLAG-tagged (pFLAG V5-DEST), on 293α cells
T1 chain: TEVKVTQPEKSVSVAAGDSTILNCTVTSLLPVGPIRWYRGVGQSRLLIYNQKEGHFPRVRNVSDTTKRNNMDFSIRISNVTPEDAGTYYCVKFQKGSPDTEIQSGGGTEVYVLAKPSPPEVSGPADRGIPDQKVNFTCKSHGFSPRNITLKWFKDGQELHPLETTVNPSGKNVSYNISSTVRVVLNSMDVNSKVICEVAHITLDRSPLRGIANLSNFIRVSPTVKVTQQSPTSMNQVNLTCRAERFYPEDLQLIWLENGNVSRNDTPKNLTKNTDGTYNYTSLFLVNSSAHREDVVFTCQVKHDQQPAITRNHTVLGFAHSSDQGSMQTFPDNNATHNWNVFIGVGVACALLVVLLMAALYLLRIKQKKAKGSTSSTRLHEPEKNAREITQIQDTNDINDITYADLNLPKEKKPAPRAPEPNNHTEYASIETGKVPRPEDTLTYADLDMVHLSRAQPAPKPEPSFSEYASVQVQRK

T2: mouse SIRPA_129 (mouse (129), UniProt P97797 32-513)
T2 construct: FLAG-tagged (pFLAG V5-DEST), on 293α cells; also called 129sv
T2 chain: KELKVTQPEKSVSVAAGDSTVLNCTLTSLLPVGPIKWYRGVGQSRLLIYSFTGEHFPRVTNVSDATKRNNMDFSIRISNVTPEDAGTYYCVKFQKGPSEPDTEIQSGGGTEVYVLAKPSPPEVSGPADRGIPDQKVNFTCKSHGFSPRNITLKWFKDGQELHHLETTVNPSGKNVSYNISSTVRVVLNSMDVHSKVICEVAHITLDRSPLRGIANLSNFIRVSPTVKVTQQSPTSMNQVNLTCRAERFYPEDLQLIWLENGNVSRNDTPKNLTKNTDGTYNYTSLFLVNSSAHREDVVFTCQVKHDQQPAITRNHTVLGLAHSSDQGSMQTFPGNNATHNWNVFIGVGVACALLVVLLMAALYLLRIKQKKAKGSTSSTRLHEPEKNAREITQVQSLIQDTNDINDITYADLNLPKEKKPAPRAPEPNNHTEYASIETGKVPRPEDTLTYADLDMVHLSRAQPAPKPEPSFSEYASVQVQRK


Experiments:
[1] = target: T1, mouse SIRPA variant hmSIRPA_Δ0; experiment: cell-based ELISA on 293α cells expressing FLAG-tagged hmSIRPA_Δ0; Abs 490 normalized to FLAG tag [i]
Experimental: After the culture supernatant of 293α cells into which the pFLAG V5-DEST-hmSIRPA_Δ0, Δ1, and Δ2 expression vector prepared in 2)-1-2-2 was introduced and the pFLAG V5-DEST-introduced 293α cells was removed, 50 μL per well of four different D13 humanized anti-human SIRPA antibodies and a chimeric anti-human SIRPA antibody diluted with 5% FBS-containing PBS to a final concentration of 10,000 ng/mL were added to these cells, and the mixture was allowed to stand at 4° C. for one hour. Further, 50 μL per well of an anti-FLAG M2 antibody (SIGMA) diluted with 5% FBS-containing PBS to a final concentration of 10,000 ng/mL was added to a well for detecting expression of each SIRPA construct, and the mixture was allowed to stand at 4° C. for one hour. Thereafter, binding to each construct was evaluated in the same manner as in the evaluation of the binding activity of the human SIRPA. Binding of anti-human SIRPA antibodies to each construct was standardized by expression of the FLAG tag.

human SIRPA_V6 = target: T3, human SIRPA_V6 (human, UniProt P78324 31-504); experiment: cell-based ELISA on 293α cells expressing FLAG-tagged SIRPA_V6; Abs 490 normalized to FLAG tag [ii]
T3 construct: FLAG-tagged (pFLAG V5-DEST), on 293α cells; also called human SIRPA Variant 6
Experimental: (§1) The 293a cells, described in Example 1)-6, were prepared at 5× 10⁵ cells/mL in a 10% FBS-containing DMEM medium. pFLAG V5-DEST-SIRPA_V1-V10, pFLAG V5-DEST-monkey SIRPA, pFLAG V5-DEST-mouse SIRPA, or pFLAG V5-DEST was introduced into the cells using Lipofectamine LTX (Invitrogen), and 100 μL each was aliquoted to a 96-well plate (Corning Incorporated) and cultured overnight in a 10% FBS-containing DMEM medium at 37° C. under a 5% CO₂ condition. The obtained introduced cells were used for cell-based ELISA in a state that they adhered. After the culture supernatant was removed, 50 μL per well of hD13_HIL3, hD13_HIL4h, hD13_H2L2, hD13_H2L3, or cD13 prepared in Examples 6 and 7 or a control antibody was added to each of various SIRPA genes-introduced cells at a final concentration of 0 to 10,000 ng/ml, and the mixture was allowed to stand at 4° C. for one hour. Thereafter, binding to human SIRPA was evaluated in the same manner as in Example 5-1.

mouse SIRPA_129 = target: T2, mouse SIRPA_129; experiment: cell-based ELISA on 293α cells expressing FLAG-tagged mouse SIRPA (129sv); Abs 490 normalized to FLAG tag [iii]
Experimental: as §1

human SIRPA_V1 protein = target: T4, human SIRPA_V1 protein (human, UniProt P78324 31-504); experiment: blocking cell-based ELISA: peroxidase-labeled CD47-Fc (1 µg/mL) on 293α cells expressing SIRPA_V1; y axis = CD47-Fc signal relative to no antibody (100)
T4 construct: Expressed on 293α cells from pcDNA3.2 V5-DEST or pFLAG V5-DEST (FLAG-tagged) vectors; also called human SIRPA Variant 1; hSIRPA V1
Experimental: After the culture supernatant of human SIRPA or monkey SIRPA expression vector-introduced 293α cells prepared in Example 8)-1 was removed, 50 μL per well of hD13_HIL3, hD13_HIL4h, hD13_H2L2, or hD13_H2L3 diluted with 5% FBS-containing PBS to a final concentration of 0 to 10,000 ng/ml was added to each of pcDNA3.2 V5-DEST-SIRPA_V1, pcDNA3.2 V5-DEST-SIRPA_V2, pcDNA3.2 V5-DEST-monkey SIRPA, and pcDNA3.2 V5-DEST-introduced 293α cells, immediately followed by addition of peroxidase-labeled CD47-Fc prepared with 5% FBS-containing PBS at 1 μg/mL, and the mixture was allowed to stand at 4° C. for one hour. Thereafter, the SIRPA-CD47 binding inhibitory activity was evaluated in the same manner as in 1)-6-3.

T4 sequence (P78324 31-504 limits assumed): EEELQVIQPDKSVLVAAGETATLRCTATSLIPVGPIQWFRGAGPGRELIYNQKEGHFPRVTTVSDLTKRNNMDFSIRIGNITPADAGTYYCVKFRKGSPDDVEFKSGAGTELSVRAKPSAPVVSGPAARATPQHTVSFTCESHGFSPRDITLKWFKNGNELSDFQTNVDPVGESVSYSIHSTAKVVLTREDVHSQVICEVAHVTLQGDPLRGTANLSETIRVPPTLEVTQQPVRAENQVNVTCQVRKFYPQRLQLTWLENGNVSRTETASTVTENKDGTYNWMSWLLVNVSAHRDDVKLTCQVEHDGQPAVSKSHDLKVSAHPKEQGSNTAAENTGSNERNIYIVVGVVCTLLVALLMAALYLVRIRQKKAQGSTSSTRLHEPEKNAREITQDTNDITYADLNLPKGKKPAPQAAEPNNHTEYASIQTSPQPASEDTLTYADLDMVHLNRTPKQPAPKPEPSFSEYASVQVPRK
T3 sequence (P78324 31-504 S105P limits assumed): as the sequence (P78324 31-504 limits assumed) above, with S75P counted along it

| binding result [1] | EC50 (read off the curve) (human SIRPA_V6) [ng/mL] | binding result (mouse SIRPA_129) | IC50 (read off the curve) (human SIRPA_V1 protein) [ng/mL] | Binder |
| --- | --- | --- | --- | --- |
| binds | ~40 | no binding (tested: 10000 ng/mL) | ~700 | human chimeric anti-SIRPA antibody cD13 (antibody, human IgG4 S228P, kappa, F234A L235A, V domains shown, Human IgG4proFALA heavy chain, human kappa light chain; also called cD13 (IgG4pf); human chimeric antibody D13) VH: EVQLVESGGGLVQPGRSLKLSCLASGFTFSDYGMIWVRQAPGKGLEWVASISSSSSYIYYADTVKGRFTISRENAKNTLFLHMTSLRSEDTALYYCARRYYGFNYPFDYWGQGVMVTVSS VL: DTVLTQSPALAVSLGQRVTISCGASKSVRTYMHWYQQKSGQQPKLLIYSASNLEAGVPSRFSGSGSGTDFTLTIDPVEADDIANYYCQQSNEPPYTFGAGTKLELKR |
| binds | ~40 | no binding (tested: 10000 ng/mL) | ~500 | humanized anti-SIRPA antibody hD13_H1L3 (antibody, human IgG4 S228P, kappa, F234A L235A, V domains shown, hH1 heavy chain (IgG4proFALA) and hL3 kappa light chain; also called hD13_HIL3; HIL3 antibody) VH: QVQLVESGGGVVQPGRSLRLSCAASGFTFSDYGMIWVRQAPGKGLEWVASISSSSSYIYYADSVKGRFTISRDNSKNRLYLQMNSLRAEDTAVYYCARRYYGFNYPFDYWGQGTMVTVSS VL: DTQLTQSPSSLSASVGQRVTITCGASKSVRTYMHWYQQKPGKQPKLLIYSASNLEAGVPSRFSGSGSGTDFTLTISSLQPEDFATYYCQQSNEPPYTFGQGTKLEIKR |
| binds | ~40 | no binding (tested: 10000 ng/mL) | ~600 | humanized anti-SIRPA antibody hD13_H2L3 (antibody, human IgG4 S228P, kappa, F234A L235A, V domains shown, hH2 heavy chain (IgG4proFALA) and hL3 kappa light chain; also called H2L3 antibody) VH: EVQLVESGGGVVQPGRSLRLSCAASGFTFSDYGMIWVRQAPGKGLEWVASISSSSSYIYYADSVKGRFTISRDNSKNTLYLQMNSLRAEDTAVYYCARRYYGFNYPFDYWGQGTMVTVSS VL: DTQLTQSPSSLSASVGQRVTITCGASKSVRTYMHWYQQKPGKQPKLLIYSASNLEAGVPSRFSGSGSGTDFTLTISSLQPEDFATYYCQQSNEPPYTFGQGTKLEIKR |
| binds | ~40 | no binding (tested: 10000 ng/mL) | ~600 | humanized anti-SIRPA antibody hD13_H2L2 (antibody, human IgG4 S228P, kappa, F234A L235A, V domains shown, hH2 heavy chain (IgG4proFALA) and hL2 kappa light chain; also called H2L2 antibody) VH: EVQLVESGGGVVQPGRSLRLSCAASGFTFSDYGMIWVRQAPGKGLEWVASISSSSSYIYYADSVKGRFTISRDNSKNTLYLQMNSLRAEDTAVYYCARRYYGFNYPFDYWGQGTMVTVSS VL: AIQLTQSPSSLSASVGQRVTITCGASKSVRTYMHWYQQKPGKAPKLLIYSASNLEAGVPSRFSGSGSGTDFTLTISSLQPEDFATYYCQQSNEPPYTFGQGTKLEIKR |
| binds | ~40 | no binding (tested: 10000 ng/mL) | ~500 | humanized anti-SIRPA antibody hD13_H1L4 (antibody, human IgG4 S228P, kappa, F234A L235A, V domains shown, hH1 heavy chain (IgG4proFALA) and hL4 kappa light chain; also called hD13_HIL4; hD13_HIL4h) VH: QVQLVESGGGVVQPGRSLRLSCAASGFTFSDYGMIWVRQAPGKGLEWVASISSSSSYIYYADSVKGRFTISRDNSKNRLYLQMNSLRAEDTAVYYCARRYYGFNYPFDYWGQGTMVTVSS VL: DTVLTQSPDSLAVSLGQRATINCGASKSVRTYMHWYQQKPGQQPKLLIYSASNLEAGVPSRFSGSGSGTDFTLTISSLQAEDVAVYYCQQSNEPPYTFGQGTKVEIKR |
